The text below walks through data of patent US11827911B2, “Chimeric bacteriophage lysin with activity against Staphylococci bacteria” (priority 2008, dated 2023).

The test system of one assay is S. aureus strain 8325-4. Description: ClyS activity as a function of pH and salt concentration. The assay is classed as cell-based, Staphylococcus aureus. The conditions noted are these: 50 U, 15 minutes. The protocol:
The effect of pH on ClyS activity was determined as previously described using the universal buffer system pH 4-10 (Yoong et al). Briefly, log phase 8325-4 cells were resuspended in the universal buffer system and incubated with 50 U of ClyS for 15 minutes. The final pH of each reaction was checked by pH paper. The samples were serially diluted and plated. In controls, PB replaced ClyS.
Similarly the effect of salt concentration on the lytic activity of ClyS was determined by incubating 50 U of ClyS with log phase 8325-4 cells in PB containing NaCl at a final concentration of 25-500 mM for 15 minutes. The samples were serially diluted and plated to determine the viability counts.

Assay [1] relates to S. aureus strains (MSSA and MRSA). In words: Muralytic activity on bacterial strains, Set I. To be noted: 50 U of ClyS, 15 minutes. In kind it is cell-based, Staphylococcus aureus. The protocol:
(§1) Muralytic activity of ClyS was tested on a number of bacterial strains representing a variety of species which were divided into sets (Table 1 and FIG. 10). Set I consisted of S. aureus strains including methicillin-sensitive S. aureus (MSSA) and MRSA. ClyS was active against MSSA and MRSA although differences were observed between S. aureus strains. Set II consisted of different species of staphylococci including S. epidermidis, S. simulans and S. sciuri. […] Set III consisted of a mix of Gram-positive and Gram-negative bacteria including representatives of group A, B, C and E streptococci, oral streptococcal species including S. gordonli, and S. salivarius, as well as S. uberis, Bacillus cereus, Pseudomonas aeruginosa and E. coli.
The viability assay of ClyS was tested as previously described (Nelson et al, 2001). Briefly, log phase cultures of S. aureus strain 8325-4 were resuspended in PB to OD600 of 0.8-1.0. 50 U of ClyS or the corresponding volume of PB was added to bacterial cells and aliquots were removed, serially diluted, and plated at 1, 5, 10, 30, and 60 minutes to assess the viability of the treated and control cells. All experiments were performed in triplicate. The activity of ClyS on various bacterial strains was tested as described previously (Schuch et al, 2002). Briefly, log phase bacterial cells were treated with 50 U of ClyS at 37° C. for 15 minutes. […]

For assay [2], the system named is S. epidermidis including the biofilm-forming strain RP62A. In words: Muralytic activity on bacterial strains, Set II. The assay is classed as cell-based. The conditions noted are these: 50 U of ClyS, 15 minutes. The protocol: as §1
(§2) The viability assay of ClyS was tested as previously described (Nelson et al, 2001). Briefly, log phase cultures of S. aureus strain 8325-4 were resuspended in PB to OD600 of 0.8-1.0. 50 U of ClyS or the corresponding volume of PB was added to bacterial cells and aliquots were removed, serially diluted, and plated at 1, 5, 10, 30, and 60 minutes to assess the viability of the treated and control cells. All experiments were performed in triplicate. The activity of ClyS on various bacterial strains was tested as described previously (Schuch et al, 2002). Briefly, log phase bacterial cells were treated with 50 U of ClyS at 37° C. for 15 minutes. The samples were serially diluted and plated. Control experiments with the addition of phosphate buffer (pH 7.0) were performed under the same conditions.

The test system of the next assay is S. sciuri. In words: Muralytic activity on bacterial strains, Set II. The conditions noted are these: 50 U of ClyS, 15 minutes. In kind it is cell-based. The protocol: as §1, §2
A further assay deals with S. simulans. Description: Muralytic activity on bacterial strains, Set II. In kind it is cell-based. To be noted: 50 U of ClyS, 15 minutes. On the procedure: as §1, §2
Another assay has as its system MRSA (191-SM^R). Description: In vivo nasal decolonization of MRSA. Also noted: species or system C57BL/6J mice. The conditions noted are these: three hourly intranasal doses of ClyS (960 μg) 24 h post-infection; 1 h after last treatment; p<0.001 vs buffer. From the text: Carriage of both MSSA and MRSA in the human anterior nares is the major reservoir for S. aureus infection. Studies have shown that roughly 80% of the population could be nasally colonized by S. aureus, and that colonization can be an increased risk factor for developing other more serious S. aureus infections (Kluytmans, J., A. van Belkum. 1997. Nasal carriage of Staphylococcus aureus: epidemiology, underlying mechanisms, and associated risks. Clin Microbiol Rev 10(3): 505-20). Elimination of nasal carriage in the community or in the hospital setting thus could possibly reduce the risk of infection and slow the spread of drug resistant S. aureus (Kluytmans et al. (1997)). To study the potential of ClyS to reduce MRSA colonization of the nasal mucosa, C57BL/6J mice were intranasally inoculated with ˜2×10^7 of a spontaneously streptomycin resistant strain of MRSA (191-SM^R). Twenty-four hours post-infection mice were administered three doses hourly of either phosphate buffered saline (control) or ClyS (960 μg) into the nasal passages. One hour after the last treatment, mice were sacrificed and bacteria colonies were enumerated on Spectra MRSA agar, (a selective chromogenic medium developed to diagnostically detect MRSA nasal colonization) and Columbia blood agar. […]

In another assay the test system is MRSA strain MW2. Description: Systemic MRSA infection model, survival. In kind it is in vivo, FVB/NJ mice. The protocol: In order to assess whether ClyS treatment could prevent death resulting from systemic MRSA infections, 4 week old FVB/NJ mice were intraperitoneally injected with ˜5×10^5 CFU of the community-acquired MRSA strain MW2 in 5% mucin. Preliminary experiments determined that 5×10^5 CFU was 10× the LD100 dose for a twenty-four hour period. Furthermore, within 3 hours of IP injection the MRSA infection was systemic. i.e., MRSA were recovered in high numbers from heart, liver, spleen, and kidney (data not shown). Treatment occurred three hours post-infection, with either 20 mM phosphate buffer or 1 mg of ClyS in 20 mM phosphate buffer injected IP (intraperitoneally). Mice were then monitored for survival over ten days. The results from three independent experiments were combined (ClyS treatment, n=16; buffer treatment, n=14) and the mice survival data plotted with a Kaplan Meier Survival curve (FIG. 12), Within twenty-four hours all of the control mice died of bacterial sepsis, while only 2/16 of ClyS treated mice died at forty-eight hours, and the remaining mice (14/16, 88%) survived over the course of the experiments (FIG. 12).
To determine if this effect could be seen in our systemic MRSA infection model, FVB/NJ mice were intraperitoneally injected with ˜5×10^5 CFUs of the MRSA strain MW2 as above. Three hours post infection mice were treated in parallel, with a lower IP dose of 130 μg/mouse of ClyS combined with different concentrations of oxacillin (10-100 μg/mouse) or buffer alone controls. Preliminary experiments determined that an ED30 dose of ClyS (130 μg/mouse) had minimal efficacy to evaluate the effect of combinatorial treatment with oxacillin (data not shown). Mice were monitored for survival for 10 days and the results of 5 independent experiments were combined and plotted in a Kaplan Meier Survival curve (FIG. 14).

The subject of the next assay is VISA strain Mu50. Description: Checkerboard broth-microdilution assay. The assay is classed as cell-based, Staphylococcus aureus. To be noted: VISA strain Mu50. From the text: (§3) We used the checkerboard broth-microdilution assay to test the interaction of ClyS with vancomycin and with oxacillin. […] Isobolograms for ClyS with vancomycin and ClyS with oxacillin was plotted by transcribing the enzyme concentrations along the inhibitory line on the microtiter plate in an x/y plot.
(In general: Dilution methods test growth across graded concentrations, often in twofold steps.)

The next assay relates to MRSA strain COL. Description: Checkerboard broth-microdilution assay. In kind it is cell-based, Staphylococcus aureus.
Source text: as §3

B1: ClyS: chimeric lysin: Twort lysin endopeptidase domain attached to the phiNM3 CWT domain, 280 amino acid residues (protein)
chain: METLKQAESYIKSKVNTGTDFDGLYGYQCMDLAVDYIYHVTDGKIRMWGNAKDAINNSFGGTATVYKNYPAFRPKYGDVVVWTTGNFATYGHIAIVTNPDPYGDLQYVTVLEQNWNGNGIYKTELATIRTHDYTGITHFIRPNFATESSVKKKDTKKKPKPSNRDGLNKDKIVYDRTNINYNMVLQGKSASKITVGSKAPYNLKWSKGAYFNAKIDGLGATSATRYGDNRTNYRFDVGQAVYAPGTLIYVFEIIDGWCRIYWNNHNEWIWHERLIVKEVF
modifications: Chimeric of Staphylococcus aureus bacteriophage Twort domain and Staphylococcus aureus phage phiNM3 CWT domain
notes: chimeric lysin: Twort lysin endopeptidase domain attached to the phiNM3 CWT domain, 280 amino acid residues
B1: in the assay with S. aureus strain 8325-4, the “activity at physiological pH” value was “partial yet significant activity” and the “activity at physiological salt concentrations” value is given as “functioned well”. Also, in the assay on S. aureus strain 8325-4 (25-500 mM NaCl in PB), the “NaCl concentration above which activity deteriorated” value is listed as “above 400 mM”. In addition, in [1], the “muralytic activity against MRSA” value is “active” and the “muralytic activity against MSSA” value was “active”. Moreover, the “muralytic activity against S. epidermidis” value in assay [2] was “active”. For the same molecule, in the assay on S. sciuri, the “muralytic activity against S. sciuri” value is “active”. Besides, the “muralytic activity against S. simulans” value with S. simulans is listed as “active”. Further, the “mean CFU on the nasal mucosa” value in the assay with MRSA (191-SM^R) is on record as 1198 CFU/cavity. Moreover, the survival with MRSA strain MW2 (130 μg/mouse of ClyS IP alone, 10 days) was determined as 30%. For the same molecule, the “mice died at forty-eight hours” value with MRSA strain MW2 (1 mg of ClyS IP three hours post-infection) is 2/16. The “survival over the course of the experiments” value in the assay on MRSA strain MW2 (1 mg of ClyS IP three hours post-infection, ten days) is 88%. The molecule also registered an ED30 dose in the assay with MRSA strain MW2 (IP, preliminary experiments) of 130 μg/mouse. Moreover, the MIC in the assay on VISA strain Mu50 was determined as 6 U/ml. The MIC in the assay on MRSA strain COL was determined as 8 U/ml.
